According to paper PMC5389554:
Read-outs that look alike come from different tables or passages of the source.

B1: AAATTAGT probe (il-12b, ccl5, cnbp) (dsDNA)
DNA 1: AAATTAGT
DNA 2: ACTAATTT
B2: 26-nt-AAATTAGT (dsDNA)
DNA 1: TGTAAACAGAAATTAGTATCTCTGCC
DNA 2: GGCAGAGATACTAATTTCTGTTTACA
B3: Mut.6 (dsDNA)
DNA 1: CTGGGGGA
DNA 2: TCCCCCAG
B4: AAATTAGA probe (il-6, ccl4) (dsDNA)
DNA 1: AAATTAGA
DNA 2: TCTAATTT
B5: CTGAAAAA probe (il-6, il-1b, ccl9, cnbp) (dsDNA)
DNA 1: CTGAAAAA
DNA 2: TTTTTCAG
B6: Mut.3 (dsDNA)
DNA 1: AGTTGCCA
DNA 2: TGGCAACT
B7: NF-κB probe (dsDNA)
DNA 1: AATGTGGGATTTTCCCATGA
DNA 2: TCATGGGAAAATCCCACATT
B8: Mut.2 (dsDNA)
DNA 1: AGTGGAGA
DNA 2: TCTCCACT
B9: 26-nt-CTGAAAAA (dsDNA)
DNA 1: GGAACTAGTCTGAAAAAGAAACTAAC
DNA 2: GTTAGTTTCTTTTTCAGACTAGTTCC
B10: Mut.5 (dsDNA)
DNA 1: GGGAAAAA
DNA 2: TTTTTCCC
B11: AGTTGAGA probe (ccl4) (dsDNA)
DNA 1: AGTTGAGA
DNA 2: TCTCAACT

Tests used:
Assay in all cases: EMSA
[1] = target: T1, GST-CNBP (isoform 1, WT) (mouse, UniProt P53996 1-178)
[2] = target: GST-CNBP Δ54-178 (CNBP-1-53) (mouse, UniProt P53996 1-53, del54-178)
[3] = target: T1, GST-CNBP (isoform 1, WT); remark: listed apart in the source
[4] = target: T1, GST-CNBP (isoform 1, WT); remark: listed apart in the source

T1 sequence (P53996 whole entry, canonical isoform): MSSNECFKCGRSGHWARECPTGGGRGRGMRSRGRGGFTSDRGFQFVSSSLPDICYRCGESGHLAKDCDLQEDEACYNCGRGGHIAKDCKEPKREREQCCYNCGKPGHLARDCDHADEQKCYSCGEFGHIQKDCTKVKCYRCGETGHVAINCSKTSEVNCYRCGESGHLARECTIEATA
GST-CNBP Δ54-178 (CNBP-1-53), sequence (P53996 1-53, stated change not applied): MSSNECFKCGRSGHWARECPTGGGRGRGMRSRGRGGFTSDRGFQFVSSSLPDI

Binder	binding result [1]	other results
B1	binds	–
B2	binds	–
B3	no binding	–
B4	binds	–
B5	binds	binding result [2]: binds
B6	no binding	–
B7	no binding	–
B8	–	binding signal [3]: > 1 fold of AGTTGAGA
GGAGGAGAGAGAGAGAGAGAGAGAGA (mixed) [G-rich 26-nt (strandedness in assay not stated; antisense S140 also listed)]	binds	–
B9	binds	–
B10	–	binding signal [4]: > 1 fold of CTGAAAAA
B11	binds	–
